Source: publication PMC5095912
Where “and” joins values, the source holds several entries; their conditions need not be identical. Identical values can stand only once.

Biological target: PKA regulatory subunit RIIα (UniProt P12367)
Experiment: native MS; components mixed at equimolar (1:1) ratio in 200 mM NH4OAc, equilibrated at least 10 min at room temperature; nESI on a Synapt G2-Si, 2-5 uM sample; single proteins sprayed alone too; some C + R samples preincubated with staurosporine, K252a or AT13148 before PKI

Substance: PKA regulatory subunit RIIα (from UniProt P12367 1-401) (natural protein)
- stoichiometry N: 3 and 4 and 2
